Assay results: PMC5586147
Where “and” joins values, the source holds several entries; their conditions need not be identical. Identical values can stand only once.

What was measured:
[1] = molecular target: human pro-TGF-β1 (C4S, R249A furin-site mutant, N107Q, N147Q), purified (human); assay: negative-stain electron microscopy
[2] = molecular target: pro-TGF-β1 prodomain expressed in absence of the growth factor (latency-associated peptide, LAP); assay: SPR

stoichiometry N (αVβ6 headpieces per pro-TGF-β1 dimer) [1]: 2 and 1
Kd [2]: 7.6 nM
Substance: soluble integrin αVβ6 headpiece (from UniProt P06756 31-625; P18564 22-491) (complex)
